Drawing on article PMC7585440, “Sclerostin inhibits Wnt signaling through tandem interaction with two LRP6 ectodomains” (Nature Communications, 2020), this text covers Kd for 1 molecule.

Assay [1] has as its target T1, human LRP6 E1E2 with a C-terminal 10× His tag, labeled with the dye NT-647 (human, UniProt O75581 21-630, dye NT-647 (Monolith NT Protein Labeling kit)).
T1 construct: Low-density lipoprotein receptor-related protein 6 (LRP6), human, ectodomains E1 and E2; the limits P21-P630 are printed for the co-expression construct; the MST construct was cloned into another vector (pAcGP67A); also called Labeled LRP6 E1E2; source: High Five insect cells (pAcGP67A), purified (Ni-NTA, HiTrapQ, SEC), no tag cleavage; not shown: His10, C-terminal, kept
T1 sequence (looked up): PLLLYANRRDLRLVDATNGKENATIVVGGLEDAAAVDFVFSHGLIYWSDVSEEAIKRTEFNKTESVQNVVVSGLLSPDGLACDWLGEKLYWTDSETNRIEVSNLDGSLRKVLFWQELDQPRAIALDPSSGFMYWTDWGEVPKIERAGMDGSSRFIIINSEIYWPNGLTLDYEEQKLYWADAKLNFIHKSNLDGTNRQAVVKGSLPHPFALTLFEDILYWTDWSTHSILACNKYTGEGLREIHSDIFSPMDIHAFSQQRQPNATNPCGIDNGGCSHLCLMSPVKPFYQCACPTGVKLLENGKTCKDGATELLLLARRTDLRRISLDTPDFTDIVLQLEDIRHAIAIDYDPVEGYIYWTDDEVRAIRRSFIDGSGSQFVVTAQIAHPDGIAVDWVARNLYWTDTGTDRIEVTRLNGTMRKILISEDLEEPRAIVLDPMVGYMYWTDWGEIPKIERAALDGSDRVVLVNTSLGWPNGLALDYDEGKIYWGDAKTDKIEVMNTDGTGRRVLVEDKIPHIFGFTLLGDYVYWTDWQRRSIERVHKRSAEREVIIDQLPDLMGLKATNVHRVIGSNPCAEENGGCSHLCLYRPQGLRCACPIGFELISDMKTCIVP
As to the kind of experiment: MST; LRP6 E1E2 or E1 labeled with NT-647 at ~5 nM, unlabeled SOST proteins or peptides titrated; 20 mM Tris-Cl pH 7.0, 200 mM NaCl, 0.5 mg/ml BSA, 0.05% Tween 20; 22 °C; Monolith NT.115 Pico. The following applies: both partners purified.

In assay [2] the target is T2, human LRP6 E1E2 (P21–P630) with a C-terminal 10× His tag (human, UniProt O75581 21-630).
T2 construct: Low-density lipoprotein receptor-related protein 6 (LRP6), human, ectodomains E1 and E2, residues P21-P630; Unlabelled form: crystal, SEC-MALS and fluorescence-SEC; An anti-His-tag antibody was used for the western blots of the fluorescence-SEC experiment; also called LRP6 ectodomains 1 and 2; source: High Five insect cells (baculovirus), secreted, purified (Ni-NTA, HiTrapQ, SEC); co-expressed …
T2 sequence (looked up): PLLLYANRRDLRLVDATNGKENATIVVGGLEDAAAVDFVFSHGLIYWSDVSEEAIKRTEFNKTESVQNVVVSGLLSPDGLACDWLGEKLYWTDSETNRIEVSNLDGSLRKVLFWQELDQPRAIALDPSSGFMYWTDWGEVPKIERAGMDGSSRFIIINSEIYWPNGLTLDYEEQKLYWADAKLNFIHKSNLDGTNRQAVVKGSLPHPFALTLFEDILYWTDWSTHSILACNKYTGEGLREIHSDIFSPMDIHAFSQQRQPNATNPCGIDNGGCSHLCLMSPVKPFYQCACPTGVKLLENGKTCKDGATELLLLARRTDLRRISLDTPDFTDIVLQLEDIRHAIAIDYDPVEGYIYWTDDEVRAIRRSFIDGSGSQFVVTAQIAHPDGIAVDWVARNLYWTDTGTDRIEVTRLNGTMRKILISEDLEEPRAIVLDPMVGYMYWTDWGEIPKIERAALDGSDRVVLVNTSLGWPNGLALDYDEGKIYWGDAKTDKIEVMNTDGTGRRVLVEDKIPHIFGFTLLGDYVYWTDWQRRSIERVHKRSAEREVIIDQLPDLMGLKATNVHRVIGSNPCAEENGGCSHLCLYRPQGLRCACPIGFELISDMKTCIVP
The experiment in a line: SEC; fluorescence-SEC: purified LRP6 E1E2–Smo-SOST complex injected at 1.5, 1, 0.5 or 0.1 µM on Superdex 200 Increase 10/300 GL; 20 mM Tris pH 7.0, 200 mM NaCl; intrinsic tryptophan fluorescence; approximate KD. As to conditions: both partners purified. (Size exclusion chromatography separates by hydrodynamic size, large species first.)

B1: human WT SOST with an N-terminal His6-SUMO tag (natural protein, UniProt Q9BQB4 24-213, looked up)
chain: QGWQAFKNDATEIIPELGEYPEPPPELENNKTMNRAENGGRPPHHPFETKDVSEYSCRELHFTRYVTDGPCRSAKPVTELVCSGQCGPARLLPNAIGRGKWWRPSGPDFRCIPDRYRAQRVQLLCPGGEAPRARKVRLVASCKCKRLTRFHNQSELKDFGTEAARPQKGRKPRPRARSAKANQAELENAY
notes: Sclerostin (SOST), human, wild type; Probably residues 24-213 (the truncated constructs begin at Q24 and the protein ends at Y213); Purified WT SOST ran as a doublet that PNGase F turned into one band (N175 likely glycosylated in part); also called Smo-SOST; SOST WT; source: High Five insect cells (pAcGP67A), purified (Ni-NTA, HiTrapQ, SEC), no tag cleavage; not shown: His6, N-terminal, kept; …
As a reminder, the Kd is a measure of binding affinity in units of concentration. B1: the Kd in assay [1] was 170 nM; in assay [2], around 50 nM.
